# Experimental data from article PMC4954776 (Nature chemical biology, 2013).
# Like-named read-outs stand apart in the source and are kept apart here.
# B1: BRAF^444-723 kinase domain with 16 solubilization mutations (domain or fragment)
# chain: RDSSDDWEIPDGQITVGQRIGSGSFGTVYKGKWHGDVAVKMLNVTAPTPQQLQAFKNEVGVLRKTRHVNILLFMGYSTKPQLAIVTQWCEGSSLYHHLHASETKFEMKKLIDIARQTARGMDYLHAKSIIHRDLKSNNIFLHEDNTVKIGDFGLATVKSRWSGSHQFEQLSGSILWMAPEVIRMQDSNPYSFQSDVYAFGIVLYELMTGQLPYSNINNRDQIIEMVGRGSLSPDLSKVRSNCPKRMKRLMAECLKKKRDERPSFPRILAEIEELARELSG
# Experiments:
# AUC [1] = target: the molecule itself; test: AUC
# AUC [2] = target: the molecule itself; test: AUC; remark: listed apart in the source
protein,measurement,setting,value
B1,Kd,AUC [1],> 25 µM
same,Kd,AUC [2],< 0.78 µM
